Legend:
[1] = molecular target: normal human erythrocytes (untreated); experiment: region II on COS cells, erythrocyte-binding assay
[2] = molecular target: Gerbich human erythrocytes (exon 3 deletion of glycophorin C/D: shortened glycophorin C, absent glycophorin D); experiment: region II on COS cells, erythrocyte-binding assay
human erythrocytes = experiment: Modified erythrocyte binding assay: absorption/elution of metabolically labeled parasite proteins followed by immunoprecipitation; details: for Binding to En(a-) erythrocytes: which lack glycophorin A; for Binding to S-s-U- erythrocytes: S-s-U- erythrocytes that lacked glycophorin B; for Elution from Gerbich and normal erythrocytes: fresh Gerbich erythrocytes vs normal erythrocytes; for Absorption from culture supernatant by Gerbich cells compared with normal erythrocytes: fresh blood from a person with the Gerbich mutation, two separate experiments; for Binding to neuraminidase-treated human erythrocytes / Binding to trypsin-treated human erythrocytes: Dd2/Nm culture supernatant; for Binding to Gerbich erythrocytes: pellet-frozen Gerbich (-2, -3, -4) erythrocytes; for Binding to Yus erythrocytes: pellet-frozen Yus (-2, -3, -4) erythrocytes
Text: We have developed a new assay for measuring binding of BAEBL to erythrocytes. Previously, EBA-175 was identified in parasite proteins bound and eluted from human erythrocytes. Its identification was based on the fact that it was the most abundant and the highest molecular weight protein eluted from these erythrocytes. Lower molecular weight proteins may be proteolytic fragments of EBA-175 or products of different genes. To positively identify BAEBL, we immunoprecipitated BAEBL from proteins eluted from erythrocytes with anti-region II and anti-region VI.
We also modified the protocol in that we identified proteins removed from the supernatant by erythrocyte absorption. We determined the different quantities of erythrocytes required to remove BAEBL from the parasite supernatant. […] The protein was largely removed by absorbing twice with 50 μl of packed erythrocytes for some culture supernatants and by only one absorbtion with 50 μl for other supernatants. Therefore, on some samples, we absorbed with 25 μl, 50 μl once, and 50 μl twice for comparison between normal erythrocytes and mutant erythrocytes or enzyme-treated erythrocytes. The protein was also eluted from the first 50 μl of packed erythrocytes used for absorption.
Blood was collected in 10% citrate-phosphate-dextrose (vol/vol) and stored for up to 4 weeks at 4° C. At the time of study, the erythrocytes were washed three times in incomplete media (RPMI-1640; Life Technologies, Rockville, Md.) with 25 mM HEPES and 0.36 mM hypoxanthine (Sigma, St. Louis, Mo.). For neuraminidase treatment, 5.5 ml of a 5% (vol/vol) suspension of the washed human erythrocytes in incomplete media were incubated twice with 3 milliunits of neuraminidase (Vibrio cholerae; CalBiochem, La Jolla, Calif.) for 2 hr at 37° C. each time. For trypsin treatment, washed human erythrocytes were incubated with 1 mg/ml of tosyl-phenylalanine-chloromethyl-ketone-treated trypsin (Sigma) for 2 hr at 37° C. After trypsin treatment, the cells were washed once in incomplete medium and incubated with 2 mg/ml soybean trypsin inhibitor (Sigma) for 10 min at room temperature. The cells were washed twice before use in a study.
The glycophorin A and glycophorin B null erythrocytes [En(a-) and S-s-U-, respectively and the glycophorin D null/glycophorin C modified erythrocytes (Gerbich cells) were frozen within a few days of receipt and thawed by the Red Cross method (Mallory, D. ed. 1993 Immunohematology Methods and Procedures American Red Cross, National Reference Laboratory, Rockville, Md., pp. 125-1-125-2). Blood from a Gerbich donor was collected in 10% (vol/vol) anticoagulant citrate-phosphate-dextrose.
Other glycophorin C/D mutant cells (Leach, Gerbich, and Yus cells) had been stored in liquid nitrogen as frozen pellets (Judd, W. J. 1994 in: Methods in Immunohematology Montgomery Scientific Publications Durham, N.C., pp. 188-190) and thawed directly into PBS at 37° C.
Soluble, metabolically labeled parasite proteins were obtained from culture supernatant of schizont-infected erythrocytes that released merozoites in the absence of uninfected erythrocytes. The parasites were left to lyse and release proteins into the culture supernatant. The Dd2/Nm clone of P. falciparum was cultured as previously described (Kaneko, O. et al. 2000 Mol Biochem Parasitol 110: […]) with the following exceptions. Schizont-infected erythrocytes (5×10^7 per ml of culture medium) were used during the metabolic labeling. The culture supernatant was ultracentrifuged in a Beckman Optima TLX Ultracentrifuge (Beckman, Fullerton, Calif.) at 40,000 rpm (98,600×g) for 10 min at 4° C. before storage at −70° C.
Proteins in the supernatant and in the diluted eluate were immunoprecipitated as previously described (Kaneko, O. et al. 2000 Mol Biochem Parasitol 110: 135-146) with the following exceptions. […]

[3] = tested on: RBC (normal, trypsin- or neuraminidase-treated, Gerbich-negative); experiment: Erythrocyte-binding assay with BAEBL region II variants expressed on the surface of COS cells; assay type: cell-based, human
[4] = glycophorin C/D null erythrocytes of the Leach phenotype, preliminary experiments

Molecule	COS cells with five or more attached RBC, total per coverslip (COS cells per coverslip) [1]	percentage of binding to normal, untreated RBC [2]	Binding to En(a-) erythrocytes (human erythrocytes)	Binding to S-s-U- erythrocytes (human erythrocytes)	Elution from Gerbich and normal erythrocytes (human erythrocytes)	Absorption from culture supernatant by Gerbich cells compared with normal erythrocytes (human erythrocytes)	Binding to neuraminidase-treated human erythrocytes (human erythrocytes)	Binding to Gerbich erythrocytes (human erythrocytes)	Binding to Yus erythrocytes (human erythrocytes)	Binding to trypsin-treated human erythrocytes (human erythrocytes)	Binding to Gerbich-negative RBC as percentage of binding to normal, untreated RBC ([3]; Gerbich-negative RBC (exon 3 deletion of glycophorin C/D))	Binding to neuraminidase-treated normal RBC as percentage of binding to normal, untreated RBC ([3]; neuraminidase-treated normal RBC)	Binding to normal RBC, untreated: COS cells with five or more attached RBC, total per coverslip ([3]; normal untreated RBC, region II (aa 143-606) expressed in COS cells)	Binding to trypsin-treated normal RBC as percentage of binding to normal, untreated RBC ([3]; trypsin-treated normal RBC)	Detection in eluate of Leach erythrocytes (human erythrocytes; [4])	Detection in parasite supernatant absorbed with Leach erythrocytes (human erythrocytes; [4])	Elution from neuraminidase-treated normal erythrocytes (human erythrocytes; neuraminidase-treated normal erythrocytes)
BAEBL region II variant VSTK, expressed on the surface of COS cells (ligand)	65	0.9%	–	–	–	–	–	–	–	–	–	–	–	–	–	–	–
EBA-175: P. falciparum receptor that binds sialic acid and the peptide backbone of glycophorin A on erythrocytes (protein) ARNEYDIKENEKFLDVYKEKFNELDKKKYGNVQKTDKKIFTFIENKLDILNNSKFNKRWKSYGTPDNIDKNMSLINKHNNEEMFNNNYQSFLSTSSLIKQNKYVPINAVRVSRILSFLDSRINNGRNTSSNNEVLSNCREKRKGMKWDCKKKNDRSNYVCIPDRRIQLCIVNLSIIKTYTKETMKDHFIEASKKESQLLLKKNDNKYNSKFCNDLKNSFLDYGHLAMGNDMDFGGYSTKAENKIQEVFKGAHGEISEHKIKNFRKEWWNEFREKLWEAMLSEHKNNINNCKNIPQEELQITQWIKEWHGEFLLERDNRSKLPKSKCKNNTLYEACEKECIDPCMKYRDWIIRSKFEWHTLSKEYETQKVPKENAENYLIKISENKNDAKVSLLLNNCDAEYSKYCDCKHTTTLVKSVLNGNDNTIKEKREHIDLDDFSKFGCDKNSVDTNTKVWECKNPYILSTKDVCVPPRRQELCLGNIDRIYDKNLLMIKEHILAIAIYESRILKRKYKNKDDKEVCKIINKTFADIRDIIGGTDYWNDLSNRKLVGKINTNSKYVHRNKKNDKLFRDEWWKVIKKDVWNVISWVFKDKTVCKEDDIENIPQFFRWFSEWGDDYCQDKTKMIETLKVECKEKPCEDDNCKSKCNSYKEWISKKKEEYNKQAKQYQEYQKGNNYKMYSEFKSIKPEVYLKKYSEKCSNLNFEDEFKEELHSDYKNKCTMCPEVKDVPISIIRNNEQTSQEAVPEENTEIAHRTETPSISEGPKGNEQKERDDDSLSKISVSPENSRPETDAKDTSNLLKLKGDVDISMPKAVIGSSPNDNINVTEQGDNISGVNSKPLSDDVRPDKKELEDQNSDESEETVVNHISKSPSINNGDDSGSGSATVSESSSSNTGLSIDDDRNGDTFVRTQDTANTEDVIRKENADKDEDEKGADEERHSTSESLSSPEEKMLTDNEGGNSLNHEEVKEHTSNSDNVQQSGGIVNMNVEKELKDTLENPSSSLDEGKAHEELSEPNLSSDQDMSNTPGPLDNTSEETTERISNNEYKVNEREDERTLTKEYEDIVLKSHMNRESDDGELYDENSDLSTVNDESEDAEAKMKGNDTSEMSHNSSQHIESDQQKNDMKTVGDLGTTHVQNEISVPVTGEIDEKLRESKESKIHKAEEERLSHTDIHKINPEDRNSNTLHLKDIRNEENERHLTNQNINISQERDLQKHGFHTMNNLHGDGVSERSQINHSHHGNRQDRGGNSGNVLNMRSNNNNFNNIPSRYNLYDKKLDLDLYENRNDSTTKELIKKLAEINKCENEISVKYCDHMIHEEIPLKTCTKEKTRNLCCAVSDYCMSYFTYDSEEYYNCTKREFDDPSYTCFRKEAFSSMIFKFLITNKIYYYFYTYKTAKVTIKKINFSLIFFFFFSF	–	–	failed to bind	bound	eluted from both Gerbich and normal erythrocytes	bound equally well to Gerbich and normal erythrocytes	failure of neuraminidase-and trypsin-treated erythrocytes to bind	bound normally	bound normally	failure of neuraminidase-and trypsin-treated erythrocytes to bind	–	–	–	–	–	–	–
VSTK: BAEBL region II variant (aa 143-606) expressed in COS cells; V185, S239, T261, K285 (protein) TFIQKRTHLFACGIKRKSIKWICRENSEKITVCVPDRKIQLCVANFLNSRLETMEKFKEIFLISVNTEAKLLYNKNEGKDPSIFCNELRNSFSDFRSSFIGDDMDFGGNTDRVKGYINTKFSDYYKEKNVEKLNNIKKEWWEKNKANLWNHMIVNHKGNISKECAIIPAEEPQINLWIKEWNENFLMEKKRLFLNIKDKCVENKKYEACFGGCRLPCSSYTSFMKKSKTQMEVLTNLYKKKNSGVDKNNFLNDLFKKNNKNDLDDFFKNEKEYDDLCDCRYTATIIKSFLNGPAKNDVDIASQINVNDLRGFGCNYKSNNEKSWNCTGTFTNKFPGTCEPPRRQTLCLGRTYLLHRGHEEDYKEHLLGASIYEAQLLKYKYKEKDENALCSIIQNSYADLADIIKGSDIIKDYYGKKMEENLNKVNKDKKRNEESLKIFREKWWDENKENVWKVMSAVLKNKET	–	–	–	–	–	–	–	–	–	–	0.9%	0%	65	0%	–	–	–
BAEBL: Plasmodium falciparum erythrocyte binding protein of the DBL-EBP family (SEQ ID NO: 2); here metabolically labeled protein from Dd2/Nm culture supernatant (protein, listed as Plasmodium falciparum, metabolic label, here metabolically labeled protein from Dd2/Nm culture supernatant) MKGYFNIYFLIPLIFLYNVIRINESIIGRTLYNRQDESSDISRVNSPELNNNHKTNIYDSDYEDVNNKLINSFVENKSVKKKRSLSFINNKTKSYDIIPPSYSYRNDKFNSLSENEDNSGNTNSNNFANTSEISIGKDNKQYTFIQKRTHLFACGIKRKSIKWICRENSEKITVCVPDRKIQLCVANFLNSRLETMEKFKEIFLISVNTEAKLLYNKNEGKDPSIFCNELRNSFSDFRSSFIGDDMDFGGNTDRVKGYINTKFSDYYKEKNVEKLNNIKKEWWEKNKANLWNHMIVNHKGNISKECAIIPAEEPQINLWIKEWNENFLMEKKRLFLNIKDKCVENKKYEACFGGCRLPCSSYTSFMKKSKTQMEVLTNLYKKKNSGVDKNNFLNDLFKKNNKNDLDDFFKNEKEYDDLCDCRYTATIIKSFLNGPAKNDVDIASQINVNDLRGFGCNYKSNNEKSWNCTGTFTNKFPGTCEPPRRQTLCLGRTYLLHRGHEEDYKEHLLGASIYEAQLLKYKYKEKDENALCSIIQNSYADLADIIKGSDIIKDYYGKKMEENLNKVNKDKKRNEESLKIFREKWWDENKENVWKVMSAVLKNKETCKDYDKFQKIPQFLRWFKEWGDDFCEKRKEKIYSFESFKVECKKKDCDENTCKNKCSEYKKWIDLKKSEYEKQVDKYTKDKNKKMYDNIDEVKNKEANVYLKEKSKECKDVNFDDKIFNESPNEYEDMCKKCDEIKYLNEIKYPKTKHDIYDIDTFSDTFGDGTPISINANINEQQSGKDTSNTGNSETSDSPVSHEPESDAAINVEKLSGDESSSETRGILDINDPSVTNNVNEVHDASNTQGSVSNTSDITNGHSESSLNRTTNAQDIKIGRSGNEQSDNQENSSHSSDNSGSLTIGQVPSEDNTQNTYDSQNPHRDTPNALASLPSDDKINEIEGFDSSRDSENGRGDTTSNTHDVRRTNIVSERRVNSHDFIRNGMANNNAHHQYITQIENNGIIRGQEESAGNSVNYKDNPKRSNFSSENDHKKNIQEYNSRDTKRVREEIIKLSKQNKCNNEYSMEYCTYSDERNSSPGPCSREERKKLCCQISDYCLKYFNFYSIEYYNCIKSEIKSPEYKCFKSEGQSSIPYFAAGGILVVIVLLLSSASRMGKSNEEYDIGESNIEATFEENNYLNKLSRIFNQEVQETNISDYSEYNYNEKNMY	–	–	bound to these erythrocytes in a similar manner as to normal erythrocytes	bound	eluted from normal but not Gerbich erythrocytes	required twice as many Gerbich cells	eliminated the binding	reduced binding	reduced binding	eliminated the binding	–	–	–	–	never detected	not detected	did not elute

Reference: patent US20050239730A1, “Plasmodium falciparum erythrocyte binding protein baebl for use as a vaccine” (priority 2001, published 2005)
